Test results: patent publication US20130216476A1 (LFB BIOTECHNOLOGIES, priority 2010, published 2013)
Blank lines part the entries; values can stand above or below the compound they belong to.

Legend:
[1] = molecular target: CD71 antigen (transferrin receptor) on the surface of ARH-77 myeloma cells (UniProt P02786); assay: QIFIKIT indirect immunofluorescence, flow cytometry on ARH-77 cells, control antibody at 5 µg/ml, anti-mouse IgG-FITC
[2] = molecular target: CD71 antigen (transferrin receptor) on the surface of ARH-77 myeloma cells (UniProt P02786); assay: QIFIKIT indirect immunofluorescence, flow cytometry on ARH-77 cells, control antibody at 5 µg/ml; BAE is background non-specific binding capacity
ARH-77 tumour cells = assay: Survival of SCID mice bearing ARH-77 tumour cells, anti-CD71 antibody with or without Velcade, section 3.2 (FIG. 3); type: in vivo
Experimental: The injection was carried out between 24 to 72 hours after whole-body exposure of the mice to gamma radiation (1.8 Gy, ^60Co, INRA, Dijon, France).
The day of injection of tumour cells is considered as day 0 (D0). […] The treatment with Velcade® commences on day 4 and therefore takes place on days D4, D7, D11, D14, D18, D25, D28 and D32.
The 40 mice are separated into 5 groups.
The injection volume of Velcade® (10 ml/kg) is adjusted to the […] of the individual animals.
The mice surviving the experiment were sacrificed after 144 days following the injection of tumour cells. An autopsy was carried out on all the mice found dead or sacrificed during the experiment due to the presence of one of the pathological signs specified in the above section.
Table 5 below compares the average survival of the mice in the 5 groups which died or were sacrificed before the end of the experiment due to the presence of the pathological signs specified above.

[3] = molecular target: CD71 antigen (transferrin receptor) on the surface of ARH-77 myeloma cells (UniProt P02786); assay: flow cytometry on ARH-77 cells, control antibody at 10 µg/ml, anti-mouse IgG-PE

UniProt P02786, sequence (P02786 whole entry): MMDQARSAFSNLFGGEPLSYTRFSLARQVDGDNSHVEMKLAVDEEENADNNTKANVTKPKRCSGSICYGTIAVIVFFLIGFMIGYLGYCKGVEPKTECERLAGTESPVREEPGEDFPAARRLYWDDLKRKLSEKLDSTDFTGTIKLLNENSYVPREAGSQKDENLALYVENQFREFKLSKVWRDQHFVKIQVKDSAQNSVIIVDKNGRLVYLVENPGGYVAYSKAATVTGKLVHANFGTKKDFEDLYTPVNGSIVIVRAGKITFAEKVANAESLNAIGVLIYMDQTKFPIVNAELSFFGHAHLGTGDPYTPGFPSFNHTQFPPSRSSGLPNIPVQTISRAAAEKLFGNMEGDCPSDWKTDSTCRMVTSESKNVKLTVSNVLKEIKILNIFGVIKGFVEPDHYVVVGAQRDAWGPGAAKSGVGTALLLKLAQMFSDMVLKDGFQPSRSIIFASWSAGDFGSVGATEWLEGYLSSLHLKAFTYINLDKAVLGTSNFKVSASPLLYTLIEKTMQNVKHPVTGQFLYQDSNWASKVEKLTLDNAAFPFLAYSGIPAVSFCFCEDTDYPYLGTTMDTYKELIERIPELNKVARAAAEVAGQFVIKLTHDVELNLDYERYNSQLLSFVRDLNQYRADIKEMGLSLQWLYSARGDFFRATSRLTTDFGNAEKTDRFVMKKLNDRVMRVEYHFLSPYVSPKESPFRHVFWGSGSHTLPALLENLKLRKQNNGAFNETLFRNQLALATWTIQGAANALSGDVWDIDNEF

MFI [1]: 5.2
BAE [2]: 2290
Compound: irrelevant antibody (anti-mouse IgG1) used as negative control

Compound: CC(C)C[C@H](NC(=O)[C@H](Cc1ccccc1)NC(=O)c1cnccn1)B(O)O [Velcade®, bortezomib]
The number of mice that died before the end of the experiment (ARH-77 tumour cells; 8 mice per group, end at day 144, doses as in Table 4): 8
day of death or of sacrifice due to pathological signs after injection of ARH-77 cells (ARH-77 tumour cells; 8 mice per group, antibodies 1.2 mg/mouse/inj twice weekly for 6 weeks, Velcade 0.5 mg/kg/inj twice weekly for 4 weeks): 27 day
The survival median (ARH-77 tumour cells; doses as in Table 4): 29.5
The survival average (ARH-77 tumour cells; only mice that died or were sacrificed before the end of the experiment, doses as in Table 4): 28.4 days

CD71+ % [3]: 3.7%
CD71- % [3]: 96.3%
MFI [3]: 4.9
Compound: negative control antibody IgG1 (MAT002)
